Laboratory results as given in patent US20110280809.

Target: Bovine pancreatic trypsin inhibitor, reduced form, P00974

B1: GST-Pdia4 (protein)
chain: VAGAEGPDEDSSNRENAIEDEEEEEEEDDDEEEDDLEVKEENGVLVLNDANFDNFVADKDTVLLEFYAPWCGHCKQFAPEYEKIANILKDKDPPIPVAKIDATSASVLASRFDVSGYPTIKILKKGQAVDYEGSRTQEEIVAKVREVSQPDWTPPPEVTLVLTKENFDEVVNDADIILVEFYAPWCGHCKKLAPEYEKAAKELSKRSPPIPLAKVDATAETDLAKRFDVSGYPTLKIFRKGRPYDYNGPREKYGIVDYMIEQSGPPSKEILTLKQVQEFLKDGDDVIIIGVFKGESDPAYQQYQDAANNLREDYKFHHTFSTEIAKFLKVSQGQLVVMQPEKFQSKYEPRSHMMDVQGSTQDSAIKDFVLKYALPLVGHRKVSNDAKRYTRRPLVVVYYSVDFSFDYRAATQFWRSKVLEVAKDFPEYTFAIADEEDYAGEVKDLGLSESGEDVNAAILDESGKKFAMEPEEFDSDTLREFVTAFKKGKLKPVIKSQPVPKNNKGPVKVVVGKTFDSIVMDPKKDVLIEFYAPWCGHCKQLEPVYNSLAKKYKGQKGLVIAKMDATANDVPSDRYKVEGFPTIYFAPSGDKKNPVKFEGGDRDLEHLSKFIEEHATKLSRTKEEL
- disulfide isomerase activity, fraction remaining (%) of the reduced BPTI: GST-Pdia4 showed disulfide isomerase activity as compared to GST protein in redox buffer as evidenced by a decrease in disulfide formation of bovine pancreatic trypsin inhibitor
